{"source": "paper PMC11840924", "about": "“Identifying Allosteric Hotspots in Mycobacterium tuberculosis cAMP Receptor Protein through Structural Homology” (Biochemistry, 2025)", "key": {"CRPMTB wildtype [1]": {"biological_target": "T1, CRPMTB wildtype (Mycobacterium tuberculosis, UniProt P9WMH3 1-224)", "T1 sequence": "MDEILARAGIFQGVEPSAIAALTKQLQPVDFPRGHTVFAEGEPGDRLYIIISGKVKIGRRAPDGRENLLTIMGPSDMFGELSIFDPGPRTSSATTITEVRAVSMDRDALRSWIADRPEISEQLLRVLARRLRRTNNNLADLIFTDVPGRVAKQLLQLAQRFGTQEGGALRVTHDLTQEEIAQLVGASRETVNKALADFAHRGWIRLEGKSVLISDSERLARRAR", "assay": "fluorescence anisotropy; no cAMP; specific 1:1 transition; 75 mM KCl, 50 mM HEPES, 1 mM EDTA, pH 7.6; […]; temperature not stated", "conditions": "protein: recombinant; tags: His-tag (pET-3a); chain copies: 2; label: fluorescein; blunt"}, "CRPMTB wildtype [2]": {"biological_target": "T1, CRPMTB wildtype", "assay": "fluorescence anisotropy; 1 mM cAMP; specific 1:1 transition; 75 mM KCl, 50 mM HEPES, 1 mM EDTA, pH 7.6; […]; temperature not stated", "conditions": "protein: recombinant; tags: His-tag (pET-3a); chain copies: 2; label: fluorescein; blunt"}}}
{"binder": "serC32 full-site promoter (dsDNA) DNA 1: GCGCGTAGTGTGAACAAGCTCACATGCAAGCC DNA 2: GGCTTGCATGTGAGCTTGTTCACACTACGCGC", "values": [{"measurement": "Ka", "setting": "CRPMTB wildtype [1]", "value": "1.87 ± 0.01 10^8 M-1"}, {"measurement": "Ka", "setting": "CRPMTB wildtype [2]", "value": "2.81 ± 0.01 10^8 M-1"}]}
